Biological target: recombinant Plasmodium falciparum circumsporozoite protein (CSP) (Plasmodium falciparum) (UniProt P19597)
Test: cell-based or functional assay

recombinant Plasmodium falciparum circumsporozoite protein (CSP) (Plasmodium falciparum), sequence (P19597 21-375 limits assumed): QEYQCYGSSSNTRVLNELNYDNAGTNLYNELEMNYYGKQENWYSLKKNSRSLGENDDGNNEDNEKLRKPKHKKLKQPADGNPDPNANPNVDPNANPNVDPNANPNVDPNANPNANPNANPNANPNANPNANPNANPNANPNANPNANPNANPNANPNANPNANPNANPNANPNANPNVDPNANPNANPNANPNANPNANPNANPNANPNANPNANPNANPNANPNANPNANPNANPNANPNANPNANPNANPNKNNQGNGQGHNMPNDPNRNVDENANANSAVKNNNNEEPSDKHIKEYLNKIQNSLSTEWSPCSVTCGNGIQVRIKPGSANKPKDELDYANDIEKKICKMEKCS

Geo Mean EC50 (ug/ml), ADNKA, Donor 1 [µg/mL]	Geo Mean EC50 (ug/ml), ADNKA, Donor 2 [µg/mL]	Geo Mean EC50 (ug/ml), ADNKA, Donor 3 [µg/mL]	Geo Mean EC50 (ug/ml), ADNKA, Donor 4 [µg/mL]	GeoMean EC50 (M), ADCP [M]	GeoMean EC50 (M), ADCP repeat, n=4 [M]	Mean EC50 (pM), ADCP [pM]	Mean EC50 (pM), ADCP repeat, n=4 [pM]	Mean pEC50, ADCP	Mean pEC50, ADCP repeat, n=4	Binder
0.0035	0.0037	0.0802	0.0214	1.18e-11	6.55e-12	11.8	6.6	10.9	11.2	AB-000338 ALE LS (antibody, human IgG1, kappa, V domains shown) VH: QVQLVESGGGVVQPGRSLRLSCAASGFSFSTYGMHWIRQVPGKGLEWVAIIWHDGSKEFYADSVKGRFTISRDNSKKKLYLQMNSLRAEDTAIYYCVKDDFDSSGHSYFHYWGQGTLVTVSS VL: GVVMTQSPLSLPVTLGQPASISCRSSQSLVHSDGNTYVHWFQQRPGQSPRRLIYKVSNRDSGVPDRFSGSGSGTDFTLKISRVEAEDVGVYYCMQGTQWWTFGQGTKVEIKR
0.0087	0.0057	0.0272	0.0067	7.21e-12		7.2		11.1		AB-000338 DEA FV LS (antibody, V domains shown) VH: QVQLVESGGGVVQPGRSLRLSCAASGFSFSTYGMHWIRQVPGKGLEWVAIIWHDGSKEFYADSVKGRFTISRDNSKKKLYLQMNSLRAEDTAIYYCVKDDFDSSGHSYFHYWGQGTLVTVSS VL: GVVMTQSPLSLPVTLGQPASISCRSSQSLVHSDGNTYVHWFQQRPGQSPRRLIYKVSNRDSGVPDRFSGSGSGTDFTLKISRVEAEDVGVYYCMQGTQWWTFGQGTKVEIK
0.0301	0.238	0.171	0.0887	9.19e-12	1.08e-11	9.2	10.8	11	11	AB-000338 LS (antibody, V domains shown) VH: QVQLVESGGGVVQPGRSLRLSCAASGFSFSTYGMHWIRQVPGKGLEWVAIIWHDGSKEFYADSVKGRFTISRDNSKKKLYLQMNSLRAEDTAIYYCVKDDFDSSGHSYFHYWGQGTLVTVSS VL: GVVMTQSPLSLPVTLGQPASISCRSSQSLVHSDGNTYVHWFQQRPGQSPRRLIYKVSNRDSGVPDRFSGSGSGTDFTLKISRVEAEDVGVYYCMQGTQWWTFGQGTKVEIK
